Measurements reported in paper PMC7730851, “Expression of Somatostatin Receptor Subtypes (SSTR-1–SSTR-5) in Pediatric Hematological and Oncological Disorders” (Molecules, 2020).

Test system: somatostatin receptors (SSTR)
Assay: Displacement of [125I]RC-160 binding from membranes of human pediatric tumors by unlabeled peptides
Protocol: Receptor binding affinities and concentrations of SSTRs in tumor membranes were also studied. […] Biochemical specifications and parameters crucial to characterize specific binding sites were also defined. […] Various peptides structurally related or unrelated to SST were used in these studies.
Displacement of [^125I] RC-160 as a radioligand by the unlabeled SST analogs as competitor was determined.
The radioiodinated derivatives of the RC-160 SST analogue were prepared by the chloramine-T method and purified by reverse phase high-performance liquid chromatography (RP-HPLC) as described previously. Somatostatin receptor-binding assays were performed as described previously with some minor modifications, using in vitro ligand competition assays based on the binding of [^125I] RC-160 as a radioligand to membrane fractions of the pediatric samples. This radioiodinated ligand has been well characterized and reported previously and has high affinity for SSTR-2 and SSTR-5 [4]. […] After incubation for 2 h, the binding reactions were stopped, and the bound ligand was separated and counted in a gamma counter. […] The final binding affinities were expressed as IC50 values. Protein concentration was determined by the method of Bradford using a Bio-Rad protein assay kit (Bio-Rad Laboratories, Inc.).

B1: epidermal growth factor (EGF): unrelated peptide used as specificity control (protein, UniProt P01133 23-1207, looked up)
Pro-epidermal growth factor: PQHWSCPEGTLAGNGNSTCVGPAPFLIFSHGNSIFRIDTEGTNYEQLVVDAGVSVIMDFHYNEKRIYWVDLERQLLQRVFLNGSRQERVCNIEKNVSGMAINWINEEVIWSNQQEGIITVTDMKGNNSHILLSALKYPANVAVDPVERFIFWSSEVAGSLYRADLDGVGVKALLETSEKITAVSLDVLDKRLFWIQYNREGSNSLICSCDYDGGSVHISKHPTQHNLFAMSLFGDRIFYSTWKMKTIWIANKHTGKDMVRINLHSSFVPLGELKVVHPLAQPKAEDDTWEPEQKLCKLRKGNCSSTVCGQDLQSHLCMCAEGYALSRDRKYCEDVNECAFWNHGCTLGCKNTPGSYYCTCPVGFVLLPDGKRCHQLVSCPRNVSECSHDCVLTSEGPLCFCPEGSVLERDGKTCSGCSSPDNGGCSQLCVPLSPVSWECDCFPGYDLQLDEKSCAASGPQPFLLFANSQDIRHMHFDGTDYGTLLSQQMGMVYALDHDPVENKIYFAHTALKWIERANMDGSQRERLIEEGVDVPEGLAVDWIGRRFYWTDRGKSLIGRSDLNGKRSKIITKENISQPRGIAVHPMAKRLFWTDTGINPRIESSSLQGLGRLVIASSDLIWPSGITIDFLTDKLYWCDAKQSVIEMANLDGSKRRRLTQNDVGHPFAVAVFEDYVWFSDWAMPSVMRVNKRTGKDRVRLQGSMLKPSSLVVVHPLAKPGADPCLYQNGGCEHICKKRLGTAWCSCREGFMKASDGKTCLALDGHQLLAGGEVDLKNQVTPLDILSKTRVSEDNITESQHMLVAEIMVSDQDDCAPVGCSMYARCISEGEDATCQCLKGFAGDGKLCSDIDECEMGVPVCPPASSKCINTEGGYVCRCSEGYQGDGIHCLDIDECQLGEHSCGENASCTNTEGGYTCMCAGRLSEPGLICPDSTPPPHLREDDHHYSVRNSDSECPLSHDGYCLHDGVCMYIEALDKYACNCVVGYIGERCQYRDLKWWELRHAGHGQQQKVIVVAVCVVVLVMLLLLSLWGAHYYRTQKLLSKNPKNPYEESSRDVRSRRPADTEDGMSSCPQPWFVVIKEHQDLKNGGQPVAGEDGQAADGSMQPTSWRQEPQLCGMGTEQGCWIPVSSDKGSCPQVMERSFHMPSYGTQTLEGGVEKPHSLLSANPLWQQRALDPPHQMELTQ
modifications: Pro-epidermal growth factor
notes: unrelated peptide used as specificity control
- displacement of [125I]RC-160 binding (membrane fractions of human rhabdomyosarcoma specimen, Figure 3): did not displace
- inhibition/displacement of the binding of radioiodinated RC-160 (pediatric tumor membranes, competitor 10^-12-10^-6 M, concentrations as high as 1 µM): none
